1 substance from PMC7845591 can be followed below.

The Kd is a measure of binding affinity in units of concentration. Higher therefore signals weaker binding.

This assay deals with endothelial protein C receptor (EPCR), residues 16 to 210, biotinylated on the BAP tag (human) (UniProt Q9UNN8). The experiment in a line: SPR; Biacore T200; biotinylated EPCR captured on a CAP chip (150 RU); twofold dilution series of CIDRα domain or synthetic binder injected 240 s, dissociation 300 s; 20 mM HEPES pH 7.5, 150 mM NaCl, 0.005% Tween 20, 25°C; global fit to a 1:1 model. Background: SPR reads the build-up and loss of mass on a sensor chip optically.
UniProt Q9UNN8, sequence (Q9UNN8 16-210): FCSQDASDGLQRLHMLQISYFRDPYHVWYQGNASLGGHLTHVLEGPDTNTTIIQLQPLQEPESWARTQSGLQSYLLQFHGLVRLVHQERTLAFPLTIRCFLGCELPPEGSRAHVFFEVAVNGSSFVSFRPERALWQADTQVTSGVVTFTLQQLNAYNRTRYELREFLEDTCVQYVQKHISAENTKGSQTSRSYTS

As to “HB3var03 CIDRα1.4 domain D576A K642A double mutant (domain or fragment)”, the Kd turned out to be 220 nM.
